The record followed here is doi:10.1101/2022.04.02.486822 (bioRxiv, 2022).

The series concerns the molecule itself. In words: crystal structure.

B1: E. coli glyoxylate reductase/hydroxypyruvate reductase A (EcGhrA), wild type, His6-tagged (enzyme, UniProt P75913 1-312, looked up)
chain: MDIIFYHPTFDTQWWIEALRKAIPQARVRAWKSGDNDSADYALVWHPPVEMLAGRDLKAVFALGAGVDSILSKLQAHPEMLNPSVPLFRLEDTGMGEQMQEYAVSQVLHWFRRFDDYRIQQNSSHWQPLPEYHREDFTIGILGAGVLGSKVAQSLQTWRFPLRCWSRTRKSWPGVQSFAGREELSAFLSQCRVLINLLPNTPETVGIINQQLLEKLPDGAYLLNLARGVHVVEDDLLAALDSGKVKGAMLDVFNREPLPPESPLWQHPRVTITPHVAAITRPAEAVEYISRTIAQLEKGERVCGQVDRARGY
B1: the binding result is given as “binds”.
